We go through two molecules from patent US20220144945A1 (Biogen, published 2022).

The target in this assay is T1, LINGO-1 ectodomain (human, UniProt Q96FE5 42-561).
T1 construct: also called Sp35
T1 sequence: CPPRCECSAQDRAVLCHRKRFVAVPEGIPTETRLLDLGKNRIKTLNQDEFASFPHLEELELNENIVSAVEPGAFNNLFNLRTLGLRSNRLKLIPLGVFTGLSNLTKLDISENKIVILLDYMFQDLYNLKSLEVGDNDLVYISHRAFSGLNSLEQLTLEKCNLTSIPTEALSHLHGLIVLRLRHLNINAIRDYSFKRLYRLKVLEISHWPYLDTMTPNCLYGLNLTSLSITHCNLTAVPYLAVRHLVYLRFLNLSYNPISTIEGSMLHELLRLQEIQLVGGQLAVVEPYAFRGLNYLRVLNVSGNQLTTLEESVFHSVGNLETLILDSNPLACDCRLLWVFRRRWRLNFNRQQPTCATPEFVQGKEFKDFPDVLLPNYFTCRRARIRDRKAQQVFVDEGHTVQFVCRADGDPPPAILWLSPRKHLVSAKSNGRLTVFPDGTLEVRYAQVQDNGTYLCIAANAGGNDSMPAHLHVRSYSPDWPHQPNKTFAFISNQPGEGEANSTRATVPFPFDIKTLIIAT
Kind of assay: method not stated.

B1: Li81 (antibody, human IgG1, kappa, V domains shown)
VH: EVQLLESGGGLVQPGGSLRLSCAASGFTFSAYEMKWVRQAPGKGLEWVSVIGPSGGFTFYADSVKGRFTISRDNSKNTLYLQMNSLRAEDTAVYYCATEGDNDAFDIWGQGTTVTVSS
VL: DIQMTQSPATLSLSPGERATLSCRASQSVSSYLAWYQQKPGQAPRLLIYDASNRATGIPARFSGSGSGTDFTLTISSLEPEDFAVYYCQQRSNWPMYTFGQGTKLEIKR
notes: also called anti-LINGO-1 antibody; anti-Lingo-1
B1 returned a Kd of at most 0.02 nM.

B2: Fab of Li81 (Fab, V domains shown)
VH: B1 VH
VL: DIQMTQSPATLSLSPGERATLSCRASQSVSSYLAWYQQKPGQAPRLLIYDASNRATGIPARFSGSGSGTDFTLTISSLEPEDFAVYYCQQRSNWPMYTFGQGTKLEIK
notes: also called Li81 Fab
In the case of B2, the Kd is at most 0.05 nM.
